Assay results reported in patent US20240392004A1 (IMMUNOWAKE, published 2024).
Changes are numbered by the printed parent chain. In names and notes the source's numbering stands.

T1: human TIGIT on HEK-Blue reporter cells (human, UniProt Q495A1 22-244)
T1 sequence (looked up): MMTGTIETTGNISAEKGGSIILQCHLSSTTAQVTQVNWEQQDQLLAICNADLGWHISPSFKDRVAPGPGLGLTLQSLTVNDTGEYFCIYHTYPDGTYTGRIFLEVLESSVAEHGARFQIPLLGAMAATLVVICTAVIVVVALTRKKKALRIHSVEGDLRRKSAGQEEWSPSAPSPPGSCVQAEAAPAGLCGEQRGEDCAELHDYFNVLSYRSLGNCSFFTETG

T2: human IL-2 receptor (IL-2Rα, IL-2Rβ, IL-2Rγ) (human, UniProt P01589 22-272; P14784 27-551; P31785 23-369)
T2 sequence (looked up) 1: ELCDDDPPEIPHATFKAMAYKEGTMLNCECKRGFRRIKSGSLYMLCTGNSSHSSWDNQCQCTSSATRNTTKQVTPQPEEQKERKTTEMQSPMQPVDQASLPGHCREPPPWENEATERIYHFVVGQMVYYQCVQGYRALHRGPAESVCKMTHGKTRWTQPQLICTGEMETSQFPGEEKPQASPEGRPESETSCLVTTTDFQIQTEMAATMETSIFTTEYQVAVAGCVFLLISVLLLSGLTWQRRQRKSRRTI
T2 sequence (looked up) 2: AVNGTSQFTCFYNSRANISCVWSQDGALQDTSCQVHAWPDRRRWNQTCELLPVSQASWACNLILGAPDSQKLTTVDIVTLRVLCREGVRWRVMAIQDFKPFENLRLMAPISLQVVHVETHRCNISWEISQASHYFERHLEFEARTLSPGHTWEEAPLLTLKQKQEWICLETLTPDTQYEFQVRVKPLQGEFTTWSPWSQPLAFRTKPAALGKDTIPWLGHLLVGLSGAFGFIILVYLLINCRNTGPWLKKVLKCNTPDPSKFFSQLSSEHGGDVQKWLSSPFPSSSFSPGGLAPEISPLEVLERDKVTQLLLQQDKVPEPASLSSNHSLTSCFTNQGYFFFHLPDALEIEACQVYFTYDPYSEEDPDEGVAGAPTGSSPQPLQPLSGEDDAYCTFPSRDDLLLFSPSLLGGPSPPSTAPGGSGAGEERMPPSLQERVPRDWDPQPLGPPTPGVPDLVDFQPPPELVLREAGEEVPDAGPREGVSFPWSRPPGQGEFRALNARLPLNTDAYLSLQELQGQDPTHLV
T2 sequence (looked up) 3: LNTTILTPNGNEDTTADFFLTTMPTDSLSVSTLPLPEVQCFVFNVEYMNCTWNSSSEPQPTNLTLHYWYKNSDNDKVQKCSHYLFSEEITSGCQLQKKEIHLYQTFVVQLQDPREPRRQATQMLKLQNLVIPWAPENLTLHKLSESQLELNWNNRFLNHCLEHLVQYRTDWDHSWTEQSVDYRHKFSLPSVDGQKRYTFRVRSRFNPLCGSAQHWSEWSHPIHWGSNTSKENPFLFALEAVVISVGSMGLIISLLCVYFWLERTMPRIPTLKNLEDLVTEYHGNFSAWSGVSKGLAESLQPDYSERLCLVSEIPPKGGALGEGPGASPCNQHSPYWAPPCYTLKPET

B1: CD155-Fc/IL-12(E59A/F60A) (IL-12 at C'), printed in Table 21 as IL-12(E59A/F60A)/CD155-Fc (Fc fusion)
chain 1: WPPPGTGDVVVQAPTQVPGFLGDSVTLPCYLQVPNMEVTHVSQLTWARHGESGSMAVFHQTQGPSYSESKRLEFVAARLGAELRNASLRMFGLRVEDEGNYTCLFVTFPQGSRSVDIWLRVLAKPQNTAEVQKVQLTGEPVPMARCVSTGGRPPAQITWHSDLGGMPNTSQVPGFLSGTVTVTSLWILVPSSQVDGKNVTCKVEHESFEKPQLLTVNLTVYYPPEVSISGYDNNWYLGQNEATLTCDARSNPEPTGYNWSTTMGPLPPFAVAQGAQLLIRPVDKPINTTLICNVTNALGARQAELTVQVKEGPPSEHSGISRNGGGGSGGGDKTHTCPPCPAPEDEGGPSVFLFPPKPKDTLMISRTPEVTCVVVDVSHEDPEVKFNWYVDGVEVHNAKTKPREEQYNSTYRVVSVLTVLHQDWLNGKEYKCKVSNKALPAPIEKTISKAKGQPREPQVYVYPPSREEMTKNQVSLTCLVKGFYPSDIAVEWESNGQPENNYKTTPPVLDEDGSFALVSKLTVDKSRWQQGNVFSCSVMHEALHNHYTQKSLSLSPGKGGGGSGGGIWELKKDVYVVELDWYPDAPGEMVVLTCDTPEEDGITWTLDQSSEVLGSGKTLTIQVKAAGDAGQYTCHKGGEVLSHSLLLLHKKEDGIWSTDILKDQKEPKNKTFLRCEAKNYSGRFTCWWLTTISTDLTFSVKSSRGSSDPQGVTCGAATLSAERVRGDNKEYEYSVECQEDSACPAAEESLPIEVMVDAVHKLKYENYTSSFFIRDIIKPDPPKNLQLKPLKNSRQVEVSWEYPDTWSTPHSYFSLTFCVQVQGKSKREKKDRVFTDKTSATVICRKNASISVRAQDRYYSSSWSEWASVPCSGGGGSGGGSGGGGSRNLPVATPDPGMFPCLHHSQNLLRAVSNMLQKARQTLEFYPCTSEEIDHEDITKDKTSTVEACLPLELTKNESCLNSRETSFITNGSCLASRKTSFMMALCLSSIYEDLKMYQVEFKTMNAKLLMDPKRQIFLDQNMLAVIDELMQALNFNSETVPQKSSLEEPDFYKTKIKLCILLHAFRIRAVTIDRVMSYLNAS
chain 2: WPPPGTGDVVVQAPTQVPGFLGDSVTLPCYLQVPNMEVTHVSQLTWARHGESGSMAVFHQTQGPSYSESKRLEFVAARLGAELRNASLRMFGLRVEDEGNYTCLFVTFPQGSRSVDIWLRVLAKPQNTAEVQKVQLTGEPVPMARCVSTGGRPPAQITWHSDLGGMPNTSQVPGFLSGTVTVTSLWILVPSSQVDGKNVTCKVEHESFEKPQLLTVNLTVYYPPEVSISGYDNNWYLGQNEATLTCDARSNPEPTGYNWSTTMGPLPPFAVAQGAQLLIRPVDKPINTTLICNVTNALGARQAELTVQVKEGPPSEHSGISRNGGGGSGGGDKTHTCPPCPAPEKKGGPSVFLFPPKPKDTLMISRTPEVTCVVVDVSHEDPEVKFNWYVDGVEVHNAKTKPREEQYNSTYRVVSVLTVLHQDWLNGKEYKCKVSNKALPAPIEKTISKAKGQPREPQVYVLPPSREEMTKNQVSLLCLVKGFYPSDIAVEWESNGQPENRYMTWPPVLDSDGSFFLYSKLTVDKSRWQQGNVFSCSVMHEALHNHYTQKSLSLSPGK
B2: IL-12(E59A/F60A)/IL-2(L18R/Q22E/R38D/K43E/E61R/Q126T/S130R)/CD155-Fc (Fc fusion)
chain 1: WPPPGTGDVVVQAPTQVPGFLGDSVTLPCYLQVPNMEVTHVSQLTWARHGESGSMAVFHQTQGPSYSESKRLEFVAARLGAELRNASLRMFGLRVEDEGNYTCLFVTFPQGSRSVDIWLRVLAKPQNTAEVQKVQLTGEPVPMARCVSTGGRPPAQITWHSDLGGMPNTSQVPGFLSGTVTVTSLWILVPSSQVDGKNVTCKVEHESFEKPQLLTVNLTVYYPPEVSISGYDNNWYLGQNEATLTCDARSNPEPTGYNWSTTMGPLPPFAVAQGAQLLIRPVDKPINTTLICNVTNALGARQAELTVQVKEGPPSEHSGISRNGGGGSGGGIWELKKDVYVVELDWYPDAPGEMVVLTCDTPEEDGITWTLDQSSEVLGSGKTLTIQVKAAGDAGQYTCHKGGEVLSHSLLLLHKKEDGIWSTDILKDQKEPKNKTFLRCEAKNYSGRFTCWWLTTISTDLTFSVKSSRGSSDPQGVTCGAATLSAERVRGDNKEYEYSVECQEDSACPAAEESLPIEVMVDAVHKLKYENYTSSFFIRDIIKPDPPKNLQLKPLKNSRQVEVSWEYPDTWSTPHSYFSLTFCVQVQGKSKREKKDRVFTDKTSATVICRKNASISVRAQDRYYSSSWSEWASVPCSGGGGSGGGSGGGGSRNLPVATPDPGMFPCLHHSQNLLRAVSNMLQKARQTLEFYPCTSEEIDHEDITKDKTSTVEACLPLELTKNESCLNSRETSFITNGSCLASRKTSFMMALCLSSIYEDLKMYQVEFKTMNAKLLMDPKRQIFLDQNMLAVIDELMQALNFNSETVPQKSSLEEPDFYKTKIKLCILLHAFRIRAVTIDRVMSYLNASGGGGSGGGDKTHTCPPCPAPEDEGGPSVFLFPPKPKDTLMISRTPEVTCVVVDVSHEDPEVKFNWYVDGVEVHNAKTKPREEQYNSTYRVVSVLTVLHQDWLNGKEYKCKVSNKALPAPIEKTISKAKGQPREPQVYVYPPSREEMTKNQVSLTCLVKGFYPSDIAVEWESNGQPENNYKTTPPVLDEDGSFALVSKLTVDKSRWQQGNVFSCSVMHEALHNHYTQKSLSLSPGK
chain 2: WPPPGTGDVVVQAPTQVPGFLGDSVTLPCYLQVPNMEVTHVSQLTWARHGESGSMAVFHQTQGPSYSESKRLEFVAARLGAELRNASLRMFGLRVEDEGNYTCLFVTFPQGSRSVDIWLRVLAKPQNTAEVQKVQLTGEPVPMARCVSTGGRPPAQITWHSDLGGMPNTSQVPGFLSGTVTVTSLWILVPSSQVDGKNVTCKVEHESFEKPQLLTVNLTVYYPPEVSISGYDNNWYLGQNEATLTCDARSNPEPTGYNWSTTMGPLPPFAVAQGAQLLIRPVDKPINTTLICNVTNALGARQAELTVQVKEGPPSEHSGISRNGGGSGAPTSSSTKKTQLQLEHLRLDLEMILNGINNYKNPKLTDMLTFEFYMPKKATELKHLQCLERELKPLEEVLNLAQSKNFHLRPRDLISNINVIVLELKGSETTFMCEYADETATIVEFLNRWITFCTSIIRTLTGGGGSGGGDKTHTCPPCPAPEKKGGPSVFLFPPKPKDTLMISRTPEVTCVVVDVSHEDPEVKFNWYVDGVEVHNAKTKPREEQYNSTYRVVSVLTVLHQDWLNGKEYKCKVSNKALPAPIEKTISKAKGQPREPQVYVLPPSREEMTKNQVSLLCLVKGFYPSDIAVEWESNGQPENRYMTWPPVLDSDGSFFLYSKLTVDKSRWQQGNVFSCSVMHEALHNHYTQKSLSLSPGK
B3: IL-2(L18R/Q22E/R38D/K43E/E61R)/CD155-Fc/IL-12(E59A/F60A) (Fc fusion)
chain 1: B1 chain 1
chain 2: B2 chain 2 with T454Q, R458S
B4: IL-2(R38D/K43E/E61R/Q126T)/CD155-Fc/IL-12(E59A/F60A) (Fc fusion)
chain 1: B1 chain 1
chain 2: B2 chain 2 with R346L, E350Q, R458S

Molecular target: T1, human TIGIT on HEK-Blue reporter cells
Assay: cell-based or functional assay

| IL-2 signal transduction, HEK-IL-2-TIGIT [%] | IL-12 signal transduction, HEK-IL-12-TIGIT [%] | Binder |
| --- | --- | --- |
| < 0.1 | 35 | B1 |
| < 0.1 | 15 | B2 |
| 81 | 42 | B3 |
| 28 | 32 | B4 |

Molecular target: human IL-12 receptor complex (IL-12Rβ1 and IL-12Rβ2) (human, UniProt P42701 24-662; Q99665 24-862)
Assay: cell-based or functional assay

human IL-12 receptor complex (IL-12Rβ1 and IL-12Rβ2), sequence (Q99665 24-862, chain 2 of 2, other chains not shown): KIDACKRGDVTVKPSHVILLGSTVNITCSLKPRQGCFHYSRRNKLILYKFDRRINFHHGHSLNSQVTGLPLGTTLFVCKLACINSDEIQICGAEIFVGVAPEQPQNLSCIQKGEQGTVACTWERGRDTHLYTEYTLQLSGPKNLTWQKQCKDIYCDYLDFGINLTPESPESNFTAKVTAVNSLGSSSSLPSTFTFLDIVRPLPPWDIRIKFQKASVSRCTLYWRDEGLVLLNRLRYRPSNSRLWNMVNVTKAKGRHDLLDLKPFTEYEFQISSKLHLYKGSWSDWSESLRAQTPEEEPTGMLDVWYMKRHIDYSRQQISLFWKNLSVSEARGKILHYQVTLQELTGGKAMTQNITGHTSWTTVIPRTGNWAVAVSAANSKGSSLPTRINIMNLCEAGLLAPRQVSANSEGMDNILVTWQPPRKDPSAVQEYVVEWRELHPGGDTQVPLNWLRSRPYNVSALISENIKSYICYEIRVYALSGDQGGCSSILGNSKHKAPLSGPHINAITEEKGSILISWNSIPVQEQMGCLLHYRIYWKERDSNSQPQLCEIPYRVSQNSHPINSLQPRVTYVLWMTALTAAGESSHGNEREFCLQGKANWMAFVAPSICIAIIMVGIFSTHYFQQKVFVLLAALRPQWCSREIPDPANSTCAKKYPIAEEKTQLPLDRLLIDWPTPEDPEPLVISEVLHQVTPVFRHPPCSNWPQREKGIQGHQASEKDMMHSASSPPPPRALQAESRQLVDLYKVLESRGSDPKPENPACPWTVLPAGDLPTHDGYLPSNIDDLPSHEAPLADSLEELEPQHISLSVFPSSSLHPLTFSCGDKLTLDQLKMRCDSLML

| IL-12 signal transduction, HEK-IL-12 [%] | Binder |
| --- | --- |
| 2 | B1 |
| < 0.2 | B2 |
| 1 | B3 |
| 2 | B4 |

Molecular target: T2, human IL-2 receptor (IL-2Rα, IL-2Rβ, …)
Assay: cell-based or functional assay

| IL-2 signal transduction, HEK-IL-2 [%] | Binder |
| --- | --- |
| < 0.1 | B1 |
| < 0.1 | B2 |
| 15 | B3 |
| 3 | B4 |
